Assay results: patent publication US20190040143A1 (AstraZeneca / MedImmune, published 2019)

B1: Clone 16 antibody (CL16), parental IgG1 (antibody, V domains shown)
VH: EVQLLESGGGLVQPGGSLRLSCAASGFTFSYYYMQWVRQAPGKGLEWVSYIGSSGGVTNYADSVKGRFTISRDNSKNTLYLQMNSLRAEDTAVYYCARVGLGDAFDIWGQGTMVTVSS
VL: QYELTQPPSASGTPGQRVTMSCSGSSSNIGLNYVSWYQQLPGTAPKLLISRNNQRPSGVPDRFSGSKSGTSASLAISGLRSEDEADYYCAAWDDSLSGEVFGGGTKLTVL
notes: also called Clone 16-PA; parental Clone 16 monoclonal antibody
B2: 2C2 monoclonal antibody (IgG1) (antibody, V domains shown)
VH: EVQLLESGGGLVQPGGSLRLSCAASGFTFSYYYMQWVRQAPGKGLEWVSYIGSSGGVTNYADSVKGRFTISRDNSKNTLYLQMNSLRAEDTAVYYCARVGLGDAFDIWGQGTMVTVSS
VL: QSVLTQPPSASGTPGQRVTISCSGSLSNIGLNYVSWYQQLPGTAPKLLISRNNQRPSGVPDRFSGSKSGTSASLAISGLRSEDEADYYCAAWDDSPPGEAFGGGTKLTVL

Assays:
[1] = biological target: T1, recombinant HER3 (Cat. No. 348-RB, R&D Systems) (UniProt P21860 20-643); test: HRG-HER3 binding ELISA: HRGb1 coated, antibody dilutions premixed with 5 ug/ml recombinant His-tagged HER3, bound HER3 detected with anti-His HRP; blocked ligand HRG
T1 construct: Detected through a His tag; also called labeled recombinant HER3 protein

[2] = biological target: human HER3 on human cancer cell lines (human, UniProt P21860 20-1342); test: cell-based or functional assay

IC50 (read off the curve) [1] [µg/mL]	potency by IC50 in HRGβ1-induced pHER3 ELISA, MCF-7 cells, against MM and AMG [2] [fold]	Binder
~0.7		B1
	~5	B2
